Reference: article PMC13155533, “The secreted protein PCYOX1L controls the surface expression of acid-sensing ion channel 1a” (Science Advances, 2025)

B1: rat ASIC2a-GFP (natural protein, UniProt Q62962-1 1-512, looked up)
chain: MDLKESPSEGSLQPSSIQIFANTSTLHGIRHIFVYGPLTIRRVLWAVAFVGSLGLLLVESSERVSYYFSYQHVTKVDEVVAQSLVFPAVTLCNLNGFRFSRLTTNDLYHAGELLALLDVNLQIPDPHLADPTVLEALRQKANFKHYKPKQFSMLEFLHRVGHDLKDMMLYCKFKGQECGHQDFTTVFTKYGKCYMFNSGEDGKPLLTTVKGGTGNGLEIMLDIQQDEYLPIWGETEETTFEAGVKVQIHSQSEPPFIQELGFGVAPGFQTFVATQEQRLTYLPPPWGECRSSEMGLDFFPVYSITACRIDCETRYIVENCNCRMVHMPGDAPFCTPEQHKECAEPALGLLAEKDSNYCLCRTPCNLTRYNKELSMVKIPSKTSAKYLEKKFNKSEKYISENILVLDIFFEALNYETIEQKKAYEVAALLGDIGGQMGLFIGASLLTILELFDYIYELIKEKLLDLLGKEEEEGSHDENMSTCDTMPNHSETISHTVNVPLQTALGTLEEIAC
notes: ASIC2a, rat, in pEGFP-N1; In the functional row the untagged rat ASIC2a (pcDNA3.1) was used; source: HEK cells, transfected, in digitonin lysate
B2: rat ASIC1a-GFP (natural protein, UniProt P55926-1 1-526, looked up)
chain: MELKTEEEEVGGVQPVSIQAFASSSTLHGLAHIFSYERLSLKRALWALCFLGSLAVLLCVCTERVQYYFCYHHVTKLDEVAASQLTFPAVTLCNLNEFRFSQVSKNDLYHAGELLALLNNRYEIPDTQMADEKQLEILQDKANFRSFKPKPFNMREFYDRAGHDIRDMLLSCHFRGEACSAEDFKVVFTRYGKCYTFNSGQDGRPRLKTMKGGTGNGLEIMLDIQQDEYLPVWGETDETSFEAGIKVQIHSQDEPPFIDQLGFGVAPGFQTFVSCQEQRLIYLPSPWGTCNAVTMDSDFFDSYSITACRIDCETRYLVENCNCRMVHMPGDAPYCTPEQYKECADPALDFLVEKDQEYCVCEMPCNLTRYGKELSMVKIPSKASAKYLAKKFNKSEQYIGENILVLDIFFEVLNYETIEQKKAYEIAGLLGDIGGQMGLFIGASILTVLELFDYAYEVIKHRLCRRGKCQKEAKRSSADKGVALSLDDVKRHNPCESLRGHPAGMTYAANILPHHPARGTFEDFTC
notes: ASIC1a, rat, in pEGFP-N1; the methods say that rat ASIC1a was used for coexpression with PCYOX1L in HEK293 cells; The vector pEGFP-N1 would put GFP at the C-terminus; source: HEK cells, transfected, in digitonin lysate

What was measured:
[1] = molecular target: the molecule itself; test: native gel or EMSA; high-resolution clear native PAGE (4 to 16%) of GFP-tagged proteins from 1% digitonin lysates of transfected HEK cells, GFP fluorescence scan; without coexpressed PCYOX1L
[2] = molecular target: the molecule itself; test: native gel or EMSA; high-resolution clear native PAGE (4 to 16%) of GFP-tagged proteins from 1% digitonin lysates of transfected HEK cells, GFP fluorescence scan; ASIC1a-GFP coexpressed with PCYOX1L-GFP

| Protein | stoichiometry N [1] | stoichiometry N [2] |
| --- | --- | --- |
| B1 | 3 |  |
| B2 |  | 3 |
